Laboratory results from the RNAGym collection of RNA variant scans (doi:10.1093/molbev/msab373).

B1: Azoarcus group I ribozyme (parent)
chain: GUGCCUUGCGCCGGGAAACCACGCAAGGGAUGGUGUCAAAUUCGGCGAAACCUAAGCGCCCGCCCGGGCGUAUGGCAACGCCGAGCCAAGCUUCGGCGCCUGCGCCGAUGAAGGUGUAGAGACUAGACGGCACCCACCUAAGGCAAACGCUAUGGUGAAGGCAUAGUCCAGGGAGUGGCGAAAGUCACACAAACCGG

Variants of: B1
Assay: reverse-splicing fitness (ratio to wild type); higher = more active; in vitro selection; Mg2+ level not given
In short: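 An in vitro group I ribozyme library with randomized positions was T7-transcribed and gel-purified. In triplicate, 10 pmol RNA in EPPS pH 7.5 was reacted with 50 pmoles of a 30-nt RNA substrate for 1 h at 37 °C across several added MgCl2 levels (1–48 mM), then stopped with EDTA. Products were reverse transcribed from a substrate-complementary primer, PCR-amplified and sequenced (HiSeq 4000). Fitness is a variant's read proportion after selection over that before, normalised to wild type.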

Variant | reverse-splicing fitness
C82G A120G A145U C150U U176G | 0.00475
C82G A120G A145U C150U U176A | 0.0121
C82G A120G A145G C150G C169G U176A | 0.0108
C82G A120G A145G C150G C169G U176C | 0.0129
C82G A120G A145G C150G C169G U176G | 0.00567
C82G A120G A145U C150A C169G U176C | 0.0157
C82G A120G A145U C150A C169G U176A | 0.0132
C82G A120G A145U C150A C169G U176G | 0.00401
C82G A120G A145U C169G | 0.0523
C82G A120G A145U C169A | 0.0302
C82G A120G A145U C169U | 0.0235
C82G A120G A145C C169A U176G | 0.0031
C82G A120G A145C C169A U176C | 0.0123
C82G A120G A145C C169A U176A | 0.0144
C82G A120C C150U C169A | 0.0121
C82G A120C C150U C169U | 0.0173
C82G A120C C150U C169G | 0.00822
C82G A120G A145U C150A | 0.00866
C82G A120G A145U C150U | 0.0229
C82G A120G A145U C150G | 0.00803
C82G A120G A145G C150G U176C | 0.011

Variant | reverse-splicing fitness
C82G A120G A145G C150G U176G | 0.00614
C82G A120G A145G C150G U176A | 0.00691
C82G A120G A145G C150A C169G | 0.0133
C82G A120G A145G C150A C169A | 0.0126
C82G A120G A145G C150A C169U | 0.011
C82G A120C C150A C169A U176G | 0.00601
C82G A120C C150A C169A U176C | 0.0213
C82G A120C C150A C169A U176A | 0.0216
C82G A120C C150G C169U U176G | 0.00535
C82G A120C C150G C169U U176A | 0.00577
C82G A120C C150G C169U U176C | 0.0109
C82G A120G A145U C169U U176A | 0.0203
C82G A120G A145U C169U U176G | 0.00349
C82G A120G A145U C169U U176C | 0.0176
C82G A120G A145G C150A C169G U176C | 0.0296
C82G A120G A145G C150A C169G U176A | 0.0188
C82G A120G A145G C150A C169G U176G | 0.00507
C82G A120G A145U C150U C169U U176C | 0.0181
C82G A120G A145U C150U C169U U176A | 0.0201
C82G A120G A145U C150U C169U U176G | 0.00413
C82G A120G C150U U176A | 0.0117

Variant | reverse-splicing fitness
C82G A120G C150U U176C | 0.0192
C82G A120G C150U U176G | 0.0083
C82G A120G A145C | 0.0276
C82G A120G A145U | 0.0294
C82G A120G A145G | 0.0281
C82G A120G C150U | 0.0196
C82G A120G C150G | 0.00725
C82G A120G C150A | 0.00962
C82G A120G A145G C150U | 0.0247
C82G A120G A145G C150G | 0.00886
C82G A120G A145G C150A | 0.0107
C82G A120G A145G C169U U176A | 0.0208
C82G A120G A145G C169U U176C | 0.0199
C82G A120G A145G C169U U176G | 0.00391
C82G A120G C150A C169A | 0.0117
C82G A120G C150A C169G | 0.0133
C82G A120G C150A C169U | 0.00945
C82G A120U A145C | 0.204
C82G A120G A145G C150G C169U U176C | 0.0139
C82G A120G A145G C150G C169U U176A | 0.0131
C82G A120G A145G C150G C169U U176G | 0.00717

Variant | reverse-splicing fitness
C82G A120G C150U C169A U176A | 0.0184
C82G A120G C150U C169A U176C | 0.0189
C82G A120G C150U C169A U176G | 0.00527
C82G A120C C150U C169U U176C | 0.0162
C82G A120C C150U C169U U176G | 0.00634
C82G A120C C150U C169U U176A | 0.0159
C82G A120G A145G C150U U176C | 0.0211
C82G A120G A145G C150U U176A | 0.0107
C82G A120G A145G C150U U176G | 0.0072
C82G A120G A145C C169U | 0.0209
C82G A120G A145C C169A | 0.0237
C82G A120G A145C C169G | 0.0468
C82G A120G C150U C169G U176A | 0.0177
C82G A120G C150U C169G U176C | 0.0246
C82G A120G C150U C169G U176G | 0.00485
C82G A120G A145U C150A C169U | 0.00806
C82G A120G A145U C150A C169G | 0.00926
C82G A120G A145U C150A C169A | 0.00985
C82G A120G C169U U176A | 0.0236
C82G A120G C169U U176G | 0.00492
C82G A120G C169U U176C | 0.024
